Values of other authors in article PMC10474108.

Target: tau (full-length, nonphosphorylated) (Homo sapiens) (UniProt P10636)
Sequence of UniProt P10636 (P10636 2-758): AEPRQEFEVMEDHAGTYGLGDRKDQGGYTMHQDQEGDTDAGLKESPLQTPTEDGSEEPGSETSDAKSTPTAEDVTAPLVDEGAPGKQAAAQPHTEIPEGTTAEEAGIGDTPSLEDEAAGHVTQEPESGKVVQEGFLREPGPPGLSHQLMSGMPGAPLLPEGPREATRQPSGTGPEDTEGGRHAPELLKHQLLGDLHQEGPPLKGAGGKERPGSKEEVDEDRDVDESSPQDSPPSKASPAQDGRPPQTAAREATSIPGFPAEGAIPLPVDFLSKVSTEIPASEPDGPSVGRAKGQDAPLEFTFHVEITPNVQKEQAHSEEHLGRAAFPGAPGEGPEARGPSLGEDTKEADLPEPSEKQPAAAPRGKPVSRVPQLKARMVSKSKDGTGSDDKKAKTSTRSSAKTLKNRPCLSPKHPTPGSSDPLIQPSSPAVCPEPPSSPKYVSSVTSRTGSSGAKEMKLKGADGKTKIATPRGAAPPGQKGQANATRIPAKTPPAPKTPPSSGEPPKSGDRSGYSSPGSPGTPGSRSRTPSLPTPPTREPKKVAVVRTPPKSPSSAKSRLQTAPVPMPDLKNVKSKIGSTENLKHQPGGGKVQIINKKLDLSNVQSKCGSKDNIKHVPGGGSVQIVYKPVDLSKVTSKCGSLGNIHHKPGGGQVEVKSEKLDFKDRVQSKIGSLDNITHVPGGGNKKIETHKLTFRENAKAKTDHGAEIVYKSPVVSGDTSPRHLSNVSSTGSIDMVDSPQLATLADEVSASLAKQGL

Kd: 60 nM
Substance: LRP1 (from UniProt Q07954)
